Data from US20240158459A1 (KYVERNA THERAPEUTICS, published 2024).
Substitutions are numbered along the chain they refer to. In names and notes the source's numbering stands.

T1: biotinylated-MADCAM-1 antigen (human, UniProt Q13477 19-317, limits assumed, biotinylated (site not stated))
T1 construct: The BLI paragraph says only 'biotinylated-MADCAM-1 antigen'; also called mucosal addressin cell adhesion molecule 1
T1 sequence (looked up): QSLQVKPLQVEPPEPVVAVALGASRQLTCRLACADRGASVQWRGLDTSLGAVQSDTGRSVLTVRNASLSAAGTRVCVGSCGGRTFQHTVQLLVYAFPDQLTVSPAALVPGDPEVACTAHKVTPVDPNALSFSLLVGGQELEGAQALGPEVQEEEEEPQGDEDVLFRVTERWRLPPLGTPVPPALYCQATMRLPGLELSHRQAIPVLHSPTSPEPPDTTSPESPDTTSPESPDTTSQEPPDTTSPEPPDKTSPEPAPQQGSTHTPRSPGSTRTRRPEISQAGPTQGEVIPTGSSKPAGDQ

B1: MAdCAM1 scFv 32.3 (scFv)
scFv: EVQLLESGGGLVQPGGSLRLSCAASGFSFSSSYWICWVRQAPGKGLEWVSCIYGGSSGATYYANWAKGRFTISRDNSKNTLYLQMNSLRAEDTAVYYCARSGSTTSGGVYRWYFNLWGQGTLVTVSSGGGGSGGGGSGGGGSDIQMTQSPSSLSASVGDRVTITCQASENIYNLLAWYQQKPGKVPKLLIYDASTLQSGVPSRFSGSGSGTDFTLTISSLQPEDVATYYCQFTYYGGTYESAFGGGTKVEIK
notes: Humanized rabbit-derived scFv, VH-(G4S)3-VL
B2: MAdCAM1 scFv 32.8 (scFv)
scFv: B1 scFv with L5V, D75H, V185A, T195N, Q197E, S198T, L215F, V225I
notes: as for B1
B3: MAdCAM1 scFv 32.5 (scFv)
scFv: B1 scFv with E1Q, L5V, L11V, G16R, S50A, K78T, Y82F
notes: as for B1
B4: MAdCAM1 scFv 32.7 (scFv)
scFv: B1 scFv with L5V, D75H
notes: as for B1
B5: MAdCAM1 scFv 32.4 (scFv)
scFv: B1 scFv with V185A, T195N, Q197E, S198T, L215F, V225I
notes: as for B1
B6: MAdCAM1 scFv 17.7 (scFv)
scFv: EVQLVESGGGLVKPGGSLRLSCAASGFSFSSTYYMCWVRQAPGKGLEWVSCIYTGSGNTDYASWAKGRFTISRDNAKNSLYLQMNSLRAEDTAVYYCARGGIVDSYFTYFDLWGQGTLVTVSSGGGGSGGGGSGGGGSDIQMTQSPSTLSASVGDRVTITCQASESIFSNLAWYQQKPGKAPKLLIYWASTLASGVPSRFSGSGSGTEFTLTISSLQPDDFATYYCQSYVYSSSSSNDFGGGTKVEIK
notes: as for B1
B7: MAdCAM1 scFv 17.5 (scFv)
scFv: B6 scFv with E1Q, L11V, K13Q, G16R, S50A, A76S, K77T, S79T, Y81F
notes: as for B1
B8: MAdCAM1 scFv 17.3 (scFv)
scFv: B6 scFv with E1Q, V5L, V38I
notes: as for B1
B9: MAdCAM1 scFv 17.1 (scFv)
scFv: B6 scFv with K13Q, D74H, A76S, S79T
notes: as for B1
B10: MAdCAM1 scFv 10.7 (scFv)
scFv: EVQLLESGGGLVQPGGSLRLSCAASGIDFSGYHYICWVRQAPGKGLEWVSCIYTVSSGIWYATWAKGRFTISRDNSKNTLYLQMNSLRAEDTAVYYCARDDADVSGYWFDLWGQGTLVTVSSGGGGSGGGGSGGGGSDIQMTQSPSSLSASVGDRVTITCQASQSISNLLAWYQQKPGKAPKLLIYKASTLASGVPSRFSGSGSGTDFTFTISSLQPEDIATYYCQQGITNNGIDHGFGGGTKVEIK
notes: as for B1
B11: MAdCAM1 scFv 10.1 (scFv)
scFv: B10 scFv with E1Q, L5V, L11V, G16R, S50A, K77T, Y81F
notes: as for B1
B12: MAdCAM1 scFv 10.3 (scFv)
scFv: B10 scFv with L5V, Q13K, S76A, T79S
notes: as for B1
B13: MAdCAM1 scFv 10.8 (scFv)
scFv: B10 scFv with D138A, M141L, F210L, I220F
notes: as for B1
B14: MAdCAM1 scFv 10.2 (scFv)
scFv: QVQLVESGGGVVQPGRSLRLSCAASGIDFSGYHYICWVRQAPGKGLEWVACIYTVSSGIWYATWAKGRFTISRDNSTNTLFLQMNSLRAEDTAVYYCARDDADVSGYWFDLWGQGTLVTVSSGGGGSGGGGSGGGGSAIQLTQSPSSLSASVGDRVTITCQASQSISNLLAWYQQKPGKAPKLLIYKASTLASGVPSRFSGSGSGTDFTLTISSLQPEDFATYYCQQGITNNGIDHGFGGGTKVEIK
notes: as for B1
B15: MAdCAM1 scFv 2.1 (scFv)
scFv: QVQLLESGGGLVKPGGSLRLSCAASGFSFSSGYYMCWIRQAPGKGLEWVSCIYADSSYTYYASWAKGRFTISRDNAKNSLYLQMNSLRAEDTAVYYCARSNGDYFYGMDLWGQGTLVTVSSGGGGSGGGGSGGGGSDIQMTQSPSSLSASVGDRVTITCQASQSINSWLSWYQQKPGKAPKLLIYRASTLASGVPSRFSGSGSGTDFTFTISSLQPEDIATYYCQSNYYSTSTAFGGGTKVEIK
notes: as for B1
B16: MAdCAM1 scFv 2.2 (scFv)
scFv: B15 scFv with D137A, F209L, I219F
notes: as for B1
B17: MAdCAM1 scFv 8.2 (scFv)
scFv: EVQLVESGGGLVQPGGSLRLSCAASGFTLSSSYYMYWVRQAPGKGLEWVSVIYAGDGNTYYASWAKGRFTISRDNSKNTLYLQMNSLRAEDTAVYYCARGYVGYGYAIDLWGQGTLVTVSSGGGGSGGGGSGGGGSAIQLTQSPSSLSASVGDRVTITCQASQSIYSSLAWYQQKPGKAPKLLIYYASILPSGVPSRFSGSGSGTDFTLTISSLQPEDFATYYCQATTYDSTYPNAFGGGTKVEIK
notes: as for B1
B18: MAdCAM1 scFv 8.4 (scFv)
scFv: B17 scFv with V5L, V51A
notes: as for B1
B19: MAdCAM1 scFv 8.5 (scFv)
scFv: B17 scFv with E1Q, L11V, G16R, S50A, A137D, L140M, S146T, D206E, E217D
notes: as for B1
B20: MAdCAM1 scFv 8.8 (scFv)
scFv: B17 scFv with S7T, V12I
notes: as for B1
B21: MAdCAM1 scFv 8.7 (scFv)
scFv: B17 scFv with S7T, V12I, A137D, L140M, S146T, D206E, E217D
notes: as for B1
B22: MAdCAM1 scFv 8.1 (scFv)
scFv: B17 scFv with A137D, L140M, S146T, D206E, E217D
notes: as for B1
B23: MAdCAM1 scFv 8.6 (scFv)
scFv: B17 scFv with E1Q, L11V, G16R, S50A
notes: as for B1
B24: MAdCAM1 scFv 32.6 (scFv)
scFv: QVQLVESGGGVVQPGRSLRLSCAASGFSFSSSYWICWVRQAPGKGLEWVACIYGGSSGATYYANWAKGRFTISRDNSTNTLFLQMNSLRAEDTAVYYCARSGSTTSGGVYRWYFNLWGQGTLVTVSSGGGGSGGGGSGGGGSDIQMTQSPSSLSASVGDRVTITCQASENIYNLLAWYQQKPGKAPKLLIYDASNLETGVPSRFSGSGSGTDFTFTISSLQPEDIATYYCQFTYYGGTYESAFGGGTKVEIK
notes: as for B1

The binders below were run against T1, biotinylated-MADCAM-1 antigen (assay: BLI, biotinylated MADCAM-1 on streptavidin biosensors, scFv titrated, global 1:1 fit).
Method: Binding affinity (KD) of MADCAM-1 scFv antibodies from Table 2 was measured using biolayer interferometry (See also FIG. 6). Streptavidin biosensors were loaded for 5 seconds with 10 Tg/mL biotinylated-MADCAM-1 antigen followed by acquisition of the baseline signal in phosphate buffer saline supplemented with bovine serum albumin and sodium azide. For the association step loaded probes were incubated for 250 seconds with a titration of anti-MADCAM-1 scFv antibodies at concentrations generally between 0 nM and 2 TM. This was followed by a dissociation step in buffer lacking anti-MADCAM-1 scFv for 250 seconds. Experimental data was normalized to a reference probe and high-frequency noise was removed by Savitzky-Golay filtering. On and off-rate constants were determined using a globally fitted 1:1 binding model.

Kd [nM] | koff [s⁻¹] | kon [M⁻¹ s⁻¹] | Binder
12.1 | 0.00491 | 407000 | B1
15.5 | 0.0083 | 534000 | B2
5.4 | 0.00146 | 272000 | B3
23.8 | 0.00991 | 416000 | B4
18.7 | 0.0108 | 577000 | B5
1.8 | 0.000537 | 300000 | B6
3.7 | 0.000967 | 258000 | B7
2.9 | 0.000868 | 304000 | B8
2.3 | 0.000568 | 247000 | B9
45.4 | 0.00108 | 23800 | B10
102 | 0.00125 | 12200 | B11
98.3 | 0.00114 | 11600 | B12
928 | 0.00259 | 2790 | B13
1260 | 0.00646 | 5130 | B14
85 | 0.00602 | 70800 | B15
329 | 0.0167 | 50800 | B16
78 | 0.00295 | 37800 | B17
30.9 | 0.000393 | 12700 | B18
114 | 0.00158 | 13800 | B19
311 | 0.00696 | 22400 | B20
258 | 0.00428 | 16600 | B21
89.9 | 0.00186 | 20700 | B22
84.8 | 0.00218 | 25700 | B23
6.7 | 0.00219 | 327000 | B24
